From publication PMC8299502

T1: Dazl(RRM) (Mus musculus, UniProt Q64368 32-117)
T1 sequence: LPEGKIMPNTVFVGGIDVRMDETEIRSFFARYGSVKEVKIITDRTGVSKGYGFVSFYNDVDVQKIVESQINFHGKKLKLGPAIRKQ

T2: RbFox(RRM) (UniProt Q9NWB1 109-208)
T2 sequence: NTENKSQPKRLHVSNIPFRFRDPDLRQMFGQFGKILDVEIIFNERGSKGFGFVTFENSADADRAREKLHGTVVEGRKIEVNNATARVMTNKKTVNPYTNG


Experiments:
Dazl(RRM) = target: T1, Dazl(RRM); test: fluorescence anisotropy
RbFox(RRM) = target: T2, RbFox(RRM); test: fluorescence anisotropy

Binder	binding result (Dazl(RRM))	binding result (RbFox(RRM))
UUGUUCUUU (ssRNA) [Dazl cognate RNA]	binds	
UCCUGCAUGUUUA (ssRNA) [RbFox cognate RNA]		binds
